According to publication PMC6190850, “The RNA-Recognition Motifs of TAR DNA-Binding Protein 43 May Play a Role in the Aberrant Self-Assembly of the Protein”:

Legend:
Settings in all cases: protein: recombinant; tags: 6xHis-SUMO removed by TEV; single strand
[1] = target: TDP-43 RRM1 (with 15-aa C-terminal linker) (UniProt Q13148 102-191); experiment: BLI; BLI (Octet RED), 10 mM potassium phosphate pH 7.2, 150 mM KCl, 0.05% Tween, 25 C; RNA on streptavidin sensors, protein 1 nM-15 uM
[2] = target: TDP-43 RRM1-2 (UniProt Q13148 102-269); experiment: as above
[3] = target: TDP-43 RRM2 (UniProt Q13148 192-269); experiment: BLI; no Kd could be determined, protein up to 15 uM; BLI (Octet RED), 10 mM potassium phosphate pH 7.2, 150 mM KCl, 0.05% Tween, 25 C; RNA on streptavidin sensors, protein 1 nM-15 uM
Chain of TDP-43 RRM2 (Q13148 192-269): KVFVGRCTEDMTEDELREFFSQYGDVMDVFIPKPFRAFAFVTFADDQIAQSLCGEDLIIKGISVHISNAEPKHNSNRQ

Chain of TDP-43 RRM1-2 (Q13148 102-269): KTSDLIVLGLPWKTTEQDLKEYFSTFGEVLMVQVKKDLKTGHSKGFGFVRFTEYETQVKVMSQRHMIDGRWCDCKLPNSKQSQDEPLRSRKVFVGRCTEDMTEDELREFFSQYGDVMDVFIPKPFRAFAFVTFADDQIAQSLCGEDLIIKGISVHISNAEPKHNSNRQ
Chain of TDP-43 RRM1 (with 15-aa C-terminal linker) (Q13148 102-191): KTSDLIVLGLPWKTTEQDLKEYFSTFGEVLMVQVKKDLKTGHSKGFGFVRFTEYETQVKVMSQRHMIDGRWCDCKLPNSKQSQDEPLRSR

Row | Binder | Kd [1] [nM] | Kd [2] [nM] | binding result [3]
1 | AUUCAUUCACAC (ssRNA) [NegAUG12] | 2550 ± 480 | 2600 ± 600 | no binding
2 | GUGUGAAUGAAU (ssRNA) [AUG12] | 480 ± 90 | 3.9 | –
